For the assay, the target named is human oxidized LDL (copper-oxidized low-density lipoprotein from plasma of a healthy individual) (human) (UniProt P04114). The assay is described as follows: cell-based or functional assay.

B1: Human-derived Del-1 (developmental endothelial locus-1), recombinant protein having a His tag added to the C-terminus (protein, not shown: small tags and cut ends)
chain: DICDPNPCENGGICLPGLADGSFSCECPDGFTDPNCSSVVEVASDEEEPTSAGPCTPNPCHNGGTCEISEAYRGDTFIGYVCKCPRGFNGIHCQHNINECEVEPCKNGGICTDLVANYSCECPGEFMGRNCQYKCSGPLGIEGGIISNQQITASSTHRALFGLQKWYPYYARLNKKGLINAWTAAENDRWPWIQINLQRKMRVTGVITQGAKRIGSPEYIKSYKIAYSNDGKTWAMYKVKGTNEDMVFRGNIDNNTPYANSFTPPIKAQYVRLYPQVCRRHCTLRMELLGCELSGCSEPLGMKSGHIQDYQITASSIFRTLNMDMFTWEPRKARLDKQGKVNAWTSGHNDQSQWLQVDLLVPTKVTGIITQGAKDFGHVQFVGSYKLAYSNDGEHWTVYQDEKQRKDKVFQGNFDNDTHRKNVIDPPIYARHIRILPWSWYGRITLRSELLGCTEEE
The molecule B1 registered an uptake of DiI-labeled oxidized LDL into LOX-1-expressing cells (fluorescence intensity) of over 90%.

(Values after patent publication US20140378659A1.)
